From PMC4219657, “Structural and Mechanistic Basis of Zinc Regulation Across the E. coli Zur Regulon” (PLoS Biology, 2014)
Numbering of substitutions follows the chain as printed. In names and notes the source's numbering stands.

Key:
Zur WT [1] = biological target: T1, Zur WT (Escherichia coli, UniProt P0AC51 1-171); test: EMSA; 50 uM ZnSO4; macroscopic Kd-app for two dimers; table footnote a not in material; EMSA: 10 mM Tris pH 8.0, 10 mM NaCl, 100 mM K-glutamate, 167 mM KCl, 1.5 mM MgCl2, 1 mM CaCl2, 50 uM ZnSO4, 1 mM DTT, 0.1 ug/ml BSA, 2 ug/ml salmon sperm DNA, DNA <=45 pM, 22 C, 30 min; conditions: protein: recombinant; chain copies: 4; label: 5'-Cy5 on strand 1; blunt
T1 sequence: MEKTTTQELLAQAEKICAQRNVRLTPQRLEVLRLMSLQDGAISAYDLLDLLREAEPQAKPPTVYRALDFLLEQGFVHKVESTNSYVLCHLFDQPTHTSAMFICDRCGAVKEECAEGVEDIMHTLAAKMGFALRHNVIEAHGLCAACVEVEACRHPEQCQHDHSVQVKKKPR

[2] = biological target: the molecule itself; test: crystal structure; Zn-loaded Zur with the 31 bp znuABC operator duplex (31mer2bpOH); hanging drop, 1.5 M ammonium sulfate, 0.1 M citrate pH 5.5, 4°C; refined to 2.50 Å
[3] = biological target: the molecule itself; test: SEC; analytical gel filtration of WT Zur, C103S and C88S; elution volume of WT (10.9 ml) as reference; column and buffer not told
Zur WT [4] = biological target: T1, Zur WT; test: X-ray crystallography; Zn2+ (2 per monomer), 2.50 A; EMSA: 10 mM Tris pH 8.0, 10 mM NaCl, 100 mM K-glutamate, 167 mM KCl, 1.5 mM MgCl2, 1 mM CaCl2, 50 uM ZnSO4, 1 mM DTT, 0.1 ug/ml BSA, 2 ug/ml salmon sperm DNA, DNA <=45 pM, 22 C, 30 min; conditions: protein: recombinant; chain copies: 4; 3' overhang 2 nt on both strands
Zur WT [5] = biological target: T1, Zur WT; test: X-ray crystallography; Zn2+; Br-DNA, 3.5 A; EMSA: 10 mM Tris pH 8.0, 10 mM NaCl, 100 mM K-glutamate, 167 mM KCl, 1.5 mM MgCl2, 1 mM CaCl2, 50 uM ZnSO4, 1 mM DTT, 0.1 ug/ml BSA, 2 ug/ml salmon sperm DNA, DNA <=45 pM, 22 C, 30 min; conditions: protein: recombinant; chain copies: 4; 3' overhang 2 nt on both strands
Zur WT [6] = biological target: T1, Zur WT; test: EMSA; 50 uM ZnSO4; macroscopic Kd-app for two dimers; EMSA: 10 mM Tris pH 8.0, 10 mM NaCl, 100 mM K-glutamate, 167 mM KCl, 1.5 mM MgCl2, 1 mM CaCl2, 50 uM ZnSO4, 1 mM DTT, 0.1 ug/ml BSA, 2 ug/ml salmon sperm DNA, DNA <=45 pM, 22 C, 30 min; conditions: protein: recombinant; chain copies: 4; label: 5'-Cy5 on strand 1; blunt
Zur WT [7] = biological target: T1, Zur WT; test: EMSA; 50 uM ZnSO4; Kd1, first dimer; EMSA: 10 mM Tris pH 8.0, 10 mM NaCl, 100 mM K-glutamate, 167 mM KCl, 1.5 mM MgCl2, 1 mM CaCl2, 50 uM ZnSO4, 1 mM DTT, 0.1 ug/ml BSA, 2 ug/ml salmon sperm DNA, DNA <=45 pM, 22 C, 30 min; conditions: protein: recombinant; chain copies: 4; label: 5'-Cy5 on strand 1; blunt
Zur D49A = biological target: T2, Zur D49A (Escherichia coli, UniProt P0AC51 1-171, D49A); test: as above; conditions: protein: recombinant; chain copies: 2; label: 5'-Cy5 on strand 1; blunt
T2 sequence: T1 sequence with D49A

Zur R52A = biological target: T3, Zur R52A (Escherichia coli, UniProt P0AC51 1-171, R52A); test: as above; conditions: protein: recombinant; chain copies: 2; label: 5'-Cy5 on strand 1; blunt
T3 sequence: T1 sequence with R52A

Zur WT [8] = biological target: T1, Zur WT; test: EMSA; 50 uM ZnSO4; macroscopic Kd-app for two dimers, Hill ~2.1; EMSA: 10 mM Tris pH 8.0, 10 mM NaCl, 100 mM K-glutamate, 167 mM KCl, 1.5 mM MgCl2, 1 mM CaCl2, 50 uM ZnSO4, 1 mM DTT, 0.1 ug/ml BSA, 2 ug/ml salmon sperm DNA, DNA <=45 pM, 22 C, 30 min; conditions: protein: recombinant; chain copies: 4; label: 5'-Cy5 on strand 1; blunt

B1: PzinT 51 bp (dsDNA)
DNA 1: CCCATTTTGCTATATGTTACAATATAACATTACACATCATATACATTAAGG
DNA 2: CCTTAATGTATATGATGTGTAATGTTATATTGTAACATATAGCAAAATGGG
B1 gave a Kd (Zur WT [1]) of 5.3e-20 M^2.

B2: E. coli zinc uptake regulator (Zur), wild type (natural protein)
chain: T1 sequence
notes: Zinc uptake regulator Zur of Escherichia coli; the crystal model includes residues 5-152 of each of four chains (A-D); Zinc-loaded (two Zn2+ sites per monomer); no tag is named; also called EcZur; WTZur; source: E. coli BL21 (DE3), pET24d-based plasmid, purified (heparin column)
With B2 the “stoichiometry N” value [2] was 4.

B3: E. coli Zur site B mutant C88S (natural protein)
chain: T1 sequence with C88S
notes: Zinc uptake regulator Zur of Escherichia coli with C88S (zinc site B); also called B-site (C88S) mutant; source: E. coli BL21 (DE3), pET24d-based plasmid, purified (heparin column)
B3 was tested, and the “stoichiometry N” value [3] was 2.

B4: PL31p 51 bp (dsDNA)
DNA 1: CCATCATTTTTACCTGTTATGTTATAACATAACCATAAAGATACATGCTGG
DNA 2: CCAGCATGTATCTTTATGGTTATGTTATAACATAACAGGTAAAAATGATGG
B4 was tested, and the Kd (Zur WT [1]) was 2.5e-20 M^2.

B5: 31mer2bpOH (dsDNA)
DNA 1: AGAAGTGTGATATTATAACATTTCATGACTATG
DNA 2: TAGTCATGAAATGTTATAATATCACACTTCTCA
B5: binds (Zur WT [4]).

B6: Br-31mer2bpOH (dsDNA)
DNA 1: B5 DNA 1 with T8U, T22U
DNA 2: B5 DNA 2
modifications: 5-bromo-dU at positions 8 and 22 of strand 1 (dU-Br)
B6: binds (Zur WT [5]).

B7: PpliG 51 bp (dsDNA)
DNA 1: CCATGAGTACGATGAACTGTTATAATATAACAATCCCTAACGGGAGAAGG
DNA 2: CCTTCTCCCGTTAGGGATTGTTATATTATAACAGTTCATCGTACTCATGG
B7 was tested, and the Kd (Zur WT [6]) was 5.2e-16 M^2 and the Kd (Zur WT [7]) was 28 nM.

B8: PznuABC 51 bp (dsDNA)
DNA 1: CCGAATATGAGAAGTGTGATATTATAACATTTCATGACTACTGCAAGACGG
DNA 2: CCGTCTTGCAGTAGTCATGAAATGTTATAATATCACACTTCTCATATTCGG
Binder B8 has a Kd (Zur D49A) of 2.1 nM, a Kd (Zur R52A) of 2.6 nM and a Kd (Zur WT [8]) of 8.2e-18 M^2.
